Measured values taken from publication PMC5376645, “Long-acting protein drugs for the treatment of ocular diseases” (Nature Communications, 2017).

Assays:
[1] = molecular target: T1, human VEGF-A165 (VEGF homodimer with each monomer having 165 amino acid residues) (Homo sapiens, UniProt P15692-4, strain, biotin (site not stated; named for Supplementary Table 2 only)); test: SPR; Biacore as per the manufacturer's protocol; kinetic rate constants and affinity of the Fab constructs for biotinylated hVEGF-A165; conditions: both partners purified
T1 construct: also called hVEGF-A165; hVEGF; source: bought: Peprotech (catalogue number AF-100-20)
T1 sequence (P15692 whole entry, looked up, change not shown): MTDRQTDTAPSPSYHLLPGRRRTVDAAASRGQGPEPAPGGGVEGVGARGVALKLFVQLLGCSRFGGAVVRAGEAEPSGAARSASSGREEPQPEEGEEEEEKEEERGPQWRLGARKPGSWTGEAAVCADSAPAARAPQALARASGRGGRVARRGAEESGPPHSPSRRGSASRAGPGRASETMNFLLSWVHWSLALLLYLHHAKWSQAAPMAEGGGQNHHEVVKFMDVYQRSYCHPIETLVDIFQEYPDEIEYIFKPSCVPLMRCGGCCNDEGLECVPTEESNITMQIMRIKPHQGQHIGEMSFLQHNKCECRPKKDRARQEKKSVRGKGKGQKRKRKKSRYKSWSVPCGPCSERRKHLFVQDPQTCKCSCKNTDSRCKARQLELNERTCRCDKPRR

[2] = molecular target: T1, human VEGF-A165 (VEGF homodimer with …); test: inhibition of binding of hVEGF-A165 to hVEGFR2-Fc (luminescence read-out); antibody titrated (pM); binding signal in relative luminescence units; triplicates; conditions: both partners purified

Binder | Kd [1] | koff [1] | kon [1] | IC50 [2]
NVS0, the Fab version of brolucizumab (Fab, V domains shown, as the Fab part of the heavy chain of Dm4 (LAVA1), without the GSGGG linker and the LINK domain; as the light chain of Dm4 (LAVA1); Made by converting the anti-VEGF scFv brolucizumab to a Fab format; also called untagged anti-VEGF Fab) VH: EVQLVESGGGLVQPGGSLRLSCTASGFSLTDYYYMTWVRQAPGKGLEWVGFIDPDDDPYYATWAKGRFTISRDNSKNTLYLQMNSLRAEDTAVYYCAGGDHNSGWGLDIWGQGTLVTVSS VL: EIVMTQSPSTLSASVGDRVIITCQASEIIHSWLAWYQQKPGKAPKLLIYLASTLASGVPSRFSGSGSGAEFTLTISSLQPDDFATYYCQNVYLASTNGANFGQGTKLTVL | 0.0142 nM | 7.87e-05 s⁻¹ | 5.51e+06 M⁻¹ s⁻¹ | 0.263 nM
brolucizumab, an anti-VEGF scFv (scFv, V domains shown, NVS0 is the Fab version of this scFv) VH: EVQLVESGGGLVQPGGSLRLSCTASGFSLTDYYYMTWVRQAPGKGLEWVGFIDPDDDPYYATWAKGRFTISRDNSKNTLYLQMNSLRAEDTAVYYCAGGDHNSGWGLDIWGQGTLVTVSS VL: EIVMTQSPSTLSASVGDRVIITCQASEIIHSWLAWYQQKPGKAPKLLIYLASTLASGVPSRFSGSGSGAEFTLTISSLQPDDFATYYCQNVYLASTNGANFGQGTKLTVL |  |  |  | 0.248 nM
LAVA24, non-glycosylated variant of LAVA1 (Fab, V domains shown, as the Fab part of the heavy chain of Dm4 (LAVA1); linker; TSG6, human, LINK domain (HABP), the N-linked glycosylation site deleted by substitution of the asparagine residue; as the light chain of Dm4 (LAVA1); The substitution is in Supplementary Data 2) VH: EVQLVESGGGLVQPGGSLRLSCTASGFSLTDYYYMTWVRQAPGKGLEWVGFIDPDDDPYYATWAKGRFTISRDNSKNTLYLQMNSLRAEDTAVYYCAGGDHNSGWGLDIWGQGTLVTVSS VL: EIVMTQSPSTLSASVGDRVIITCQASEIIHSWLAWYQQKPGKAPKLLIYLASTLASGVPSRFSGSGSGAEFTLTISSLQPDDFATYYCQNVYLASTNGANFGQGTKLTVL | 0.00882 nM | 0.000198 s⁻¹ | 2.25e+07 M⁻¹ s⁻¹ | 
LAVA25, non-glycosylated variant of LAVA1 (Fab, V domains shown, as the Fab part of the heavy chain of Dm4 (LAVA1); linker; TSG6, human, LINK domain (HABP), the N-linked glycosylation site deleted by substitution of the asparagine residue; as the light chain of Dm4 (LAVA1); The substitution is in Supplementary Data 2) VH: EVQLVESGGGLVQPGGSLRLSCTASGFSLTDYYYMTWVRQAPGKGLEWVGFIDPDDDPYYATWAKGRFTISRDNSKNTLYLQMNSLRAEDTAVYYCAGGDHNSGWGLDIWGQGTLVTVSS VL: EIVMTQSPSTLSASVGDRVIITCQASEIIHSWLAWYQQKPGKAPKLLIYLASTLASGVPSRFSGSGSGAEFTLTISSLQPDDFATYYCQNVYLASTNGANFGQGTKLTVL | 0.0115 nM | 0.000213 s⁻¹ | 1.86e+07 M⁻¹ s⁻¹ | 

Second part, the binder after the results:

Kd [1] | koff [1] | kon [1] | IC50 [2] | Binder
0.000161 nM | 1.19e-05 s⁻¹ | 7.39e+07 M⁻¹ s⁻¹ | 0.301 nM | LAVA3, protease-resistant variant of LAVA1 (Fab, V domains shown, as the Fab part of the heavy chain of Dm4 (LAVA1); linker; TSG6, human, LINK domain (HABP), with amino acid substitutions around the observed proteolytic sites; as the light chain of Dm4 (LAVA1); The substitutions are in Supplementary Data 2) VH: EVQLVESGGGLVQPGGSLRLSCTASGFSLTDYYYMTWVRQAPGKGLEWVGFIDPDDDPYYATWAKGRFTISRDNSKNTLYLQMNSLRAEDTAVYYCAGGDHNSGWGLDIWGQGTLVTVSS VL: EIVMTQSPSTLSASVGDRVIITCQASEIIHSWLAWYQQKPGKAPKLLIYLASTLASGVPSRFSGSGSGAEFTLTISSLQPDDFATYYCQNVYLASTNGANFGQGTKLTVL
0.00413 nM | 0.000257 s⁻¹ | 6.23e+07 M⁻¹ s⁻¹ |  | LAVA46, variant of LAVA1 with an additional disulfide bond in the LINK domain (Fab, V domains shown, as the Fab part of the heavy chain of Dm4 (LAVA1); linker; TSG6, human, LINK domain (HABP), with cysteine residues introduced for an additional disulfide bond and substitutions at and around the observed digestion sites; as the light chain of Dm4 (LAVA1); The substitutions are in Supplementary Data 2) VH: EVQLVESGGGLVQPGGSLRLSCTASGFSLTDYYYMTWVRQAPGKGLEWVGFIDPDDDPYYATWAKGRFTISRDNSKNTLYLQMNSLRAEDTAVYYCAGGDHNSGWGLDIWGQGTLVTVSS VL: EIVMTQSPSTLSASVGDRVIITCQASEIIHSWLAWYQQKPGKAPKLLIYLASTLASGVPSRFSGSGSGAEFTLTISSLQPDDFATYYCQNVYLASTNGANFGQGTKLTVL
0.00307 nM | 7.21e-05 s⁻¹ | 2.35e+07 M⁻¹ s⁻¹ |  | LAVA45, variant of LAVA1 with an additional disulfide bond in the LINK domain (Fab, V domains shown, as the Fab part of the heavy chain of Dm4 (LAVA1); linker; TSG6, human, LINK domain (HABP), with cysteine residues introduced for an additional disulfide bond and substitutions at and around the observed digestion sites; as the light chain of Dm4 (LAVA1); The substitutions are in Supplementary Data 2) VH: EVQLVESGGGLVQPGGSLRLSCTASGFSLTDYYYMTWVRQAPGKGLEWVGFIDPDDDPYYATWAKGRFTISRDNSKNTLYLQMNSLRAEDTAVYYCAGGDHNSGWGLDIWGQGTLVTVSS VL: EIVMTQSPSTLSASVGDRVIITCQASEIIHSWLAWYQQKPGKAPKLLIYLASTLASGVPSRFSGSGSGAEFTLTISSLQPDDFATYYCQNVYLASTNGANFGQGTKLTVL
0.000176 nM | 1.01e-05 s⁻¹ | 5.75e+07 M⁻¹ s⁻¹ | 0.28 nM | LAVA1 (NVS24): NVS0 Fab with the LINK domain of human TSG6 fused to the C terminus of the heavy chain (Fab, V domains shown, Fab heavy chain of NVS0 (from brolucizumab); linker; TSG6 (TNF-stimulated gene 6 protein), human, LINK domain; Fab light chain of NVS0 (from brolucizumab); The LINK domain has a natural N-linked glycosylation site) VH: EVQLVESGGGLVQPGGSLRLSCTASGFSLTDYYYMTWVRQAPGKGLEWVGFIDPDDDPYYATWAKGRFTISRDNSKNTLYLQMNSLRAEDTAVYYCAGGDHNSGWGLDIWGQGTLVTVSS VL: EIVMTQSPSTLSASVGDRVIITCQASEIIHSWLAWYQQKPGKAPKLLIYLASTLASGVPSRFSGSGSGAEFTLTISSLQPDDFATYYCQNVYLASTNGANFGQGTKLTVL
0.00453 nM | 0.000185 s⁻¹ | 4.1e+07 M⁻¹ s⁻¹ | 0.207 nM | LAVA2, protease-resistant variant of LAVA1 (Fab, V domains shown, as the Fab part of the heavy chain of Dm4 (LAVA1); linker; TSG6, human, LINK domain (HABP), with amino acid substitutions around the observed proteolytic sites; as the light chain of Dm4 (LAVA1); The substitutions are in Supplementary Data 2) VH: EVQLVESGGGLVQPGGSLRLSCTASGFSLTDYYYMTWVRQAPGKGLEWVGFIDPDDDPYYATWAKGRFTISRDNSKNTLYLQMNSLRAEDTAVYYCAGGDHNSGWGLDIWGQGTLVTVSS VL: EIVMTQSPSTLSASVGDRVIITCQASEIIHSWLAWYQQKPGKAPKLLIYLASTLASGVPSRFSGSGSGAEFTLTISSLQPDDFATYYCQNVYLASTNGANFGQGTKLTVL
